This test deals with purified human fibrinogen (human) (UniProt P02671). Nature of the test: cell-based or functional assay.

A value given as a limit tells only on which side of the number the result lay.

Sequence of UniProt P02671 (P02671 20-629 limits assumed, chain 1 of 3): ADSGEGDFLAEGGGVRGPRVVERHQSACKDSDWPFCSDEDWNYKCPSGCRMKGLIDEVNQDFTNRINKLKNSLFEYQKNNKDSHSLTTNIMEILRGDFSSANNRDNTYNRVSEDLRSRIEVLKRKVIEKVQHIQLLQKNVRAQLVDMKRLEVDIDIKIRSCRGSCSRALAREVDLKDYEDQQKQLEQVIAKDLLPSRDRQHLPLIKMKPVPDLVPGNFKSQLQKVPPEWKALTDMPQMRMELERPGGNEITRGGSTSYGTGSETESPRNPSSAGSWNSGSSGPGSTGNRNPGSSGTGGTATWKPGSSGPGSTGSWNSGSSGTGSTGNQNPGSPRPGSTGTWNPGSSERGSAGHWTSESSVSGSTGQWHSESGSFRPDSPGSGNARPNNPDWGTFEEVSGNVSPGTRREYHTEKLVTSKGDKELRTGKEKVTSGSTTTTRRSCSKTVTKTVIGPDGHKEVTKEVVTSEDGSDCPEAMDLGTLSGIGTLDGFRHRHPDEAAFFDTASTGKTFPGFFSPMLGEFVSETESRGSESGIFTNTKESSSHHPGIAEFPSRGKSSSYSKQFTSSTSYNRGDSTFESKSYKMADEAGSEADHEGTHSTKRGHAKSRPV
Sequence of UniProt P02671 (P02675 31-491 limits assumed, chain 2 of 3, further chain): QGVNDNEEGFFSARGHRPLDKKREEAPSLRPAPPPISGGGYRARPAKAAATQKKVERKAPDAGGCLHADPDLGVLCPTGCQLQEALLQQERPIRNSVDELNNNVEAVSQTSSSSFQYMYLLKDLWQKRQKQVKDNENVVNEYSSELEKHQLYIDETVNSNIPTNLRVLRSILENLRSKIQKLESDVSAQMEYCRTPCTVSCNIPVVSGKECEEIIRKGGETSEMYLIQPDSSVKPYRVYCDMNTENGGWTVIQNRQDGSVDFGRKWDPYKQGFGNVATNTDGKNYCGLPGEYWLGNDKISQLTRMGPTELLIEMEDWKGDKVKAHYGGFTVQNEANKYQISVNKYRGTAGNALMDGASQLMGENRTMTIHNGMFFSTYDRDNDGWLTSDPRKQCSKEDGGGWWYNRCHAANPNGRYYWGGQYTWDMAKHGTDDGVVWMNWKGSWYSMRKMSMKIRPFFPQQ
Sequence of UniProt P02671 (P02679 other isoform, or with tags, fused parts or gaps limits assumed, chain 3 of 3, further chain): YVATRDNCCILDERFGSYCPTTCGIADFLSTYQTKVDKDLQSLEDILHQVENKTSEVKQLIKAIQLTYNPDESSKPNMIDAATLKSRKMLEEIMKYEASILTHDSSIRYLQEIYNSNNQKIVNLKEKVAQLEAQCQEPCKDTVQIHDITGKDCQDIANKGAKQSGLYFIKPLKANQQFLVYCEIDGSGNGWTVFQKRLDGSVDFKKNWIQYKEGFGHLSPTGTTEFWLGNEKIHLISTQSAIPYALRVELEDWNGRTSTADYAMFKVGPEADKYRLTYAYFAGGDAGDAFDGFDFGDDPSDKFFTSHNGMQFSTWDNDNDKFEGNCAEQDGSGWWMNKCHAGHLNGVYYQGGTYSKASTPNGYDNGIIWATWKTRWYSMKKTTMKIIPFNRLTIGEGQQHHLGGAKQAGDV

“PeproStat: fibrinogen-binding peptides of sequence GPRPG (GPRPG-PEG12-maleimide) conjugated to human serum albumin thiolated with 2-iminothiolane (from UniProt P02768 25-609)” yielded a Clotting activity (clot formation, Sigma Amelung KC4 coagulometer; 30 uL sample at 0.5 mg/ml added to 100 uL fibrinogen at 3 mg/ml) below 6 s.

For the origin of these results see US20140031293A1.
